The results in this text go back to US20090166224A1.

The target in test [1] is Inter-alpha-trypsin inhibitor (human). Put plainly: human serum on M-LAC column, displacer fraction, extracted ion chromatogram of peptide ….
Test [2] concerns the target HAPTOGLOBIN-2 (human) (UniProt P00738). Described as above.
Test [3] has as its target Pregnancy zone protein in fucosidase-treated serum (human) (UniProt P20742). As to the kind of experiment: fucosidase-treated serum on M-LAC column, displacer fraction, LC-MS/MS; smaller rank = more abundant.
The target of test [4] is Inter-alpha-trypsin inhibitor in fucosidase-treated serum (human). The description is as above.
The target of test [5] is asialotransferrin (human) (UniProt P02787). Put plainly: neuraminidase-treated serum on M-LAC column, displacer fraction, LC-MS/MS; smaller rank = more abundant.
Test [6] addresses Alpha-2HS-glycoprotein in neuraminidase-treated serum (human) (UniProt P02765). The description is as above.
For test [7], the target named is Beta-2-glycoprotein in neuraminidase-treated serum (human) (UniProt P02749). Described as above.
For test [8], the target named is Pregnancy zone protein in fucosidase-treated serum (human) (UniProt P20742). As to the kind of experiment: fucosidase-treated serum on M-LAC column, displacer fraction, extracted ion chromatogram of peptide … (so in the source).
Sequence of Pregnancy zone protein in fucosidase-treated serum (human) (P20742 26-1482 limits assumed): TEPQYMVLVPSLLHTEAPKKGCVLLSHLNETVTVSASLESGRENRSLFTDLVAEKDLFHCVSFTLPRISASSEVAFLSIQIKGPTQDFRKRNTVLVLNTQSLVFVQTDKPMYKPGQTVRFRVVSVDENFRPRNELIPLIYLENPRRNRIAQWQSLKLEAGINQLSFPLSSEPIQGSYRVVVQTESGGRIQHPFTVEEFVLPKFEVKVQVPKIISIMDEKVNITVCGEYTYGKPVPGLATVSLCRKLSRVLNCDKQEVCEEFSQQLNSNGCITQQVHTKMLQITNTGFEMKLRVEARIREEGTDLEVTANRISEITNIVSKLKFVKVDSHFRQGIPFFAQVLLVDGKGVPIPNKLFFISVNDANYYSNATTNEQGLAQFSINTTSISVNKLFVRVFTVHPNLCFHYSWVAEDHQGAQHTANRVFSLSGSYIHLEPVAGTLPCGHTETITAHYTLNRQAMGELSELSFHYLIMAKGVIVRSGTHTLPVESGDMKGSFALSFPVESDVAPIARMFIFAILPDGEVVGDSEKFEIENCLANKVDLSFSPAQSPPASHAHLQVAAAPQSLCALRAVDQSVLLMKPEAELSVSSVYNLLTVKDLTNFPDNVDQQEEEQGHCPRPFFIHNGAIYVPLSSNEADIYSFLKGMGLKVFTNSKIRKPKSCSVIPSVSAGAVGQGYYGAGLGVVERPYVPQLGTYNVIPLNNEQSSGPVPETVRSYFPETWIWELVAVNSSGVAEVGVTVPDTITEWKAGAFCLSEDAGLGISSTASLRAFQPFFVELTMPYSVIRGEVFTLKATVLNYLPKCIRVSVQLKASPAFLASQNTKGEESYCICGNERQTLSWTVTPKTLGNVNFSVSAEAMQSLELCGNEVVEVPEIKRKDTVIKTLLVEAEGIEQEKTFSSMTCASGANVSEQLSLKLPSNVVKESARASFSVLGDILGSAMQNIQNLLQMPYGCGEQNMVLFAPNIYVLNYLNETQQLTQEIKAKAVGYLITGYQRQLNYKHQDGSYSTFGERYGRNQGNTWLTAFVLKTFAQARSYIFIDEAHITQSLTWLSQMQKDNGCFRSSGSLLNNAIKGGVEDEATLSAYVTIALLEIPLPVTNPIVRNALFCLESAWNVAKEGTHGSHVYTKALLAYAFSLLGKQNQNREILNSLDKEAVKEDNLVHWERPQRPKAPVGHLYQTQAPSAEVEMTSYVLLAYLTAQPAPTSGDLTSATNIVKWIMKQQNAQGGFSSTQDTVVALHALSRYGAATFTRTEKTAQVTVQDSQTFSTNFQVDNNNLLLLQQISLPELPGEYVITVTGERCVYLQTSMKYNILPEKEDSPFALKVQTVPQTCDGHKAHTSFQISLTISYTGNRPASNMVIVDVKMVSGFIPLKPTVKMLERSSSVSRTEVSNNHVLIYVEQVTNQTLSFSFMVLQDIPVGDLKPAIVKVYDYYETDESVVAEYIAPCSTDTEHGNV
The target of test [9] is SERO… (human) (UniProt P02787). As to the kind of experiment: human serum on Con A/WGA/Jacalin column, lectin-specific displacer fraction, LC-MS/MS; grade = SEQUEST rank group (+ = ranks 1-5, ++++ = 16-20).
In test [10] the target is CERULOPLASMIN (human) (UniProt P00450). Described as above.
Sequence of UniProt P00450 (P00450 20-1065 limits assumed): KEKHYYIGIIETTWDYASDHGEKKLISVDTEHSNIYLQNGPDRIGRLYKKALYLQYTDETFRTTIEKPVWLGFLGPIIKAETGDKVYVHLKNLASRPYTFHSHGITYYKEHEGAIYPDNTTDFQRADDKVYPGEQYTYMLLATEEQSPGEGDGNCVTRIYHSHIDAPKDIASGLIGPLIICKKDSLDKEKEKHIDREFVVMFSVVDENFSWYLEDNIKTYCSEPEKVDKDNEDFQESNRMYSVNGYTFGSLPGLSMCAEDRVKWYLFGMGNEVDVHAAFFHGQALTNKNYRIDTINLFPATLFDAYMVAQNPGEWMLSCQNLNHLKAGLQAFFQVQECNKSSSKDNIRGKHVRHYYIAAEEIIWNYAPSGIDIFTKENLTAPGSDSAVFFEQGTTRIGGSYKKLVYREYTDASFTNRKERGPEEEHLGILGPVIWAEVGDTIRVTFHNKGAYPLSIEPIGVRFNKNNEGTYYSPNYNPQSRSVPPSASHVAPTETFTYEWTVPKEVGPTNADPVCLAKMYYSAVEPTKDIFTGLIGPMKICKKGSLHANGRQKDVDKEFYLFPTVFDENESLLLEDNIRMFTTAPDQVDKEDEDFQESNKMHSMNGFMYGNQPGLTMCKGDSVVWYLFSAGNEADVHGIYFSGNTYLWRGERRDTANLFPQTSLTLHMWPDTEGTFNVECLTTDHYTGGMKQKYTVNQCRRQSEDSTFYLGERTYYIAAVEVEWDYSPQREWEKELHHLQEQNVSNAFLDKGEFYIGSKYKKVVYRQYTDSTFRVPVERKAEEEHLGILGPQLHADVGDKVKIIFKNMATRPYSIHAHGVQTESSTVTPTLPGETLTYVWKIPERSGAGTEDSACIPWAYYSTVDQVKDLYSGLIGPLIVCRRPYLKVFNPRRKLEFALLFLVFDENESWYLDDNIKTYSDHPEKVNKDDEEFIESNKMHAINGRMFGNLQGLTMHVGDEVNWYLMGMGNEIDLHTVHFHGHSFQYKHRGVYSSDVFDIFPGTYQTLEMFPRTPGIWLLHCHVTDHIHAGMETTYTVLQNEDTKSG
Test [11] addresses APOLIPOPROTEIN A-I (human) (UniProt P02647). The test is described as above.
Test [12] concerns the target … ZONE PROTEIN (human) (UniProt P20742). The description is as above.
In test [13] the target is Inter-alpha-trypsin inhibitor (human). As to the kind of experiment: human serum on M-LAC column, displacer fraction, LC-MS/MS; smaller rank = more abundant.
Test [14] concerns the target ALPHA-2-HS-GLYCOPROTEIN (human) (UniProt P02765). The description is as above.
In test [15] the target is Beta-2-glycoprotein (human) (UniProt P02749). Described as above.
Sequence of Beta-2-glycoprotein (human) (P02749 20-345 limits assumed): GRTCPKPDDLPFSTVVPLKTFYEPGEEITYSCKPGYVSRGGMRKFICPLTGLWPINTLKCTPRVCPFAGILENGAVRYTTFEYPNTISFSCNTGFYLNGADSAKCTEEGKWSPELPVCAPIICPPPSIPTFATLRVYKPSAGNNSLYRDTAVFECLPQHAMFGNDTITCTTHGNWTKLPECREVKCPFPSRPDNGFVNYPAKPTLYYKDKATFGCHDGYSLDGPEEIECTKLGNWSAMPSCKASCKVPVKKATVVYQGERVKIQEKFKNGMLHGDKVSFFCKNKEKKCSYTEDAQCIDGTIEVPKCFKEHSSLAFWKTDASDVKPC
In test [16] the target is SERO… (human) (UniProt P02787). The description is as above.
Test [17] deals with HAPTOGLOBIN-2 (human) (UniProt P00738). The description is as above.
Sequence of HAPTOGLOBIN-2 (human) (P00738 19-406 limits assumed): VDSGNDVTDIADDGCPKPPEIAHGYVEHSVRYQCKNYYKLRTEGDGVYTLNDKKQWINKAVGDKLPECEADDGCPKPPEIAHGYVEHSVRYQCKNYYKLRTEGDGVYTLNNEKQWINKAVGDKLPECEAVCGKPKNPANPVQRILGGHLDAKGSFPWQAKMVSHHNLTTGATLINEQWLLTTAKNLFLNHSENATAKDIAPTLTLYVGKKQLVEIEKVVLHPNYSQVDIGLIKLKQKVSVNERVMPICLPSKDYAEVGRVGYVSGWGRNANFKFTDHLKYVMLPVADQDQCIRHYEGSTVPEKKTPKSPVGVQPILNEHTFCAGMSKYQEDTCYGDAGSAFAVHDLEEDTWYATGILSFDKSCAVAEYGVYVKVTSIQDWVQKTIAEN
Test [18] addresses CERULOPLASMIN (human) (UniProt P00450). Described as above.
The target in test [19] is Alpha-1-acid-glycoprotein (human) (UniProt P02763). Described as above.
Test [20] has as its target … ZONE PROTEIN (human) (UniProt P20742). The description is as above.
The target of test [21] is Inter-alpha-trypsin inhibitor in fucosidase-treated serum (human). Put plainly: fucosidase-treated serum on M-LAC column, displacer fraction, extracted ion chromatogram of peptide ….
In test [22] the target is IG ALPHA-1 CHAIN C REGION (human) (UniProt P01876). As to the kind of experiment: human serum on M-LAC column, Jacalin displacer fraction, LC-MS/MS; smaller rank = more abundant.
Test [23] shares this target. Put plainly: human serum on Con A/WGA/Jacalin column, lectin-specific displacer fraction, LC-MS/MS; grade = SEQUEST rank group (+ = ranks 1-5, ++++ = 16-20).
In test [24] the target is ALPHA-2-HS-GLYCOPROTEIN (human) (UniProt P02765). Described as above.
Sequence of UniProt P02765 (P02765 19-300 limits assumed, chain 1 of 2): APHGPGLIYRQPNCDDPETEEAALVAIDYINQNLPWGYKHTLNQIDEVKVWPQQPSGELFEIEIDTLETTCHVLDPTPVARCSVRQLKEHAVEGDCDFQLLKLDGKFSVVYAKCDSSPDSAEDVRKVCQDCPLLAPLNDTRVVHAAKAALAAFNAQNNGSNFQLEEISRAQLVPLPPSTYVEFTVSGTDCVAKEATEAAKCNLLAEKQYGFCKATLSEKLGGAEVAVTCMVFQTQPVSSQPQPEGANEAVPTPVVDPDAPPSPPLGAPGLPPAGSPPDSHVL
Sequence of UniProt P02765 (P02765 341-367 limits assumed, chain 2 of 2): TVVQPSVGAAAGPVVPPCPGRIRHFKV
Test [25] deals with asialotransferrin (human) (UniProt P02787). As to the kind of experiment: neuraminidase-treated serum on M-LAC column, displacer fraction, extracted ion chromatogram of peptide ….

Sequence of … ZONE PROTEIN (human) (P20742 26-1482 limits assumed): as the sequence (P20742 26-1482 limits assumed) above

As for “Concanavalin A (Con A), agarose-bound (from UniProt P02866 30-281)”, the peptide peak area in displacer fraction in [1] was 500000 counts; with HAPTOGLOBIN-2 (human) [2] it was 4e+07 counts; in test [8] it was 1.6e+07 counts; in test [21] it was 0 counts. In addition, the SEQUEST rank in displacer fraction was determined as 25 in [3]; 13 in test [4]; 2 in test [5]; 31 in [6]; 24 in test [7]; 22 in [13]. Besides, the SEQUEST rank in displacer fraction was determined as 32 in test [14]; 20 in test [15]; 2 with SERO… (human) [16]; 7 with HAPTOGLOBIN-2 (human) [17]; 14 in the test with CERULOPLASMIN (human) [18]; 33 in test [19]. The substance further yielded an SEQUEST rank in displacer fraction with … ZONE PROTEIN (human) [20] of 34. Besides, the SEQUEST ranking (relative abundance in the Con A displacement fraction) with SERO… (human) [9] was in the range of 1 to 5 rank; with CERULOPLASMIN (human) [10], 16 to 20 rank; in [11], 11 to 15 rank; with … ZONE PROTEIN (human) [12], 16 to 20 rank.
As for “Jacalin lectin, agarose-bound (from UniProt P18670 1-133; P18671 1-20)”, the SEQUEST rank in displacer fraction in [22] is 1; in test [5], 1; in test [6], 7; in [7], 23; in test [14], 14; in [15], 20. Also, the SEQUEST rank in displacer fraction stood at 2 with SERO… (human) [16], 9 with HAPTOGLOBIN-2 (human) [17], 24 in the test with CERULOPLASMIN (human) [18] and 21 in [19]. Besides, the SEQUEST ranking (relative abundance in the Jacalin displacement fraction) fell in the range of 1 to 5 rank in test [23], 6 to 10 rank in test [24] and 16 to 20 rank with SERO… (human) [9]. The peptide peak area in displacer fraction was found to be 2.4e+07 counts in test [25] (peptide at M/Z 530.2) and 8.3e+06 counts in test [25] (peptide at M/Z 790.1).
With “wheat germ agglutinin (WGA), agarose-bound (from UniProt P10968 27-197)”, the SEQUEST rank in displacer fraction amounted to 17 in [3]; 81 in test [14]; 52 in test [15]; 19 with SERO… (human) [16]; 4 in the test with HAPTOGLOBIN-2 (human) [17]; 8 with CERULOPLASMIN (human) [18]. Moreover, the SEQUEST rank in displacer fraction (in test [19]; with … ZONE PROTEIN (human) [20]) was 7 throughout. In addition, the peptide peak area in displacer fraction in test [8] came to 5.2e+06 counts. The values for the SEQUEST ranking (relative abundance in the WGA displacement fraction) (in test [24]; with … ZONE PROTEIN (human) [12]) were 11 to 15 rank and 6 to 10 rank, respectively.
